# Laboratory results from US12059458B2, “Peptides and combination of peptides and scaffolds for use in immunotherapy against renal cell carcinoma (RCC) and other cancers” (Immatics Biotechnologies GmbH, priority 2015, dated 2024).
# Test system: CD8+ T cells of healthy HLA-A*02 donors
# Assay: In vitro immunogenicity: T-cell priming with aAPCs loaded with peptide/MHC complexes and anti-CD28 antibody, pMHC multimer readout
# Type: cell-based, human
# Conditions: Table 10B
# Description: In order to obtain information regarding the immunogenicity of the TUMAPs of the present invention, the inventors performed investigations using an in vitro T-cell priming assay based on repeated stimulations of CD8+ T cells with artificial antigen presenting cells (aAPCs) loaded with peptide/MHC complexes and anti-CD28 antibody.
# In order to perform in vitro stimulations by artificial antigen presenting cells loaded with peptide-MHC complex (pMHC) and anti-CD28 antibody, the inventors first isolated CD8+ T cells from fresh HLA-A*02 leukapheresis products via positive selection using CD8 microbeads (Miltenyi Biotec, Bergisch-Gladbach, Germany) of healthy donors obtained from the University clinics Mannheim, Germany, after informed consent.
# PBMCs and isolated CD8+ lymphocytes were incubated in T-cell medium (TCM) until use consisting of RPMI-Glutamax (Invitrogen, Karlsruhe, Germany) supplemented with 10% heat inactivated human AB serum (PAN-Biotech, Aidenbach, Germany), 100 U/ml Penicillin/100 μg/ml Streptomycin (Cambrex, Cologne, Germany), 1 mM sodium pyruvate (CC Pro, Oberdorla, Germany), 20 μg/ml Gentamycin (Cambrex). 2.5 ng/ml IL-7 (PromoCell, Heidelberg, Germany) and 10 U/ml IL-2 (Novartis Pharma, Nümberg, Germany) were also added to the TCM at this step.
# Generation of pMHC/anti-CD28 coated beads, T-cell stimulations and readout was performed in a highly defined in vitro system using four different pMHC molecules per stimulation condition and 8 different pMHC molecules per readout condition.
# The purified co-stimulatory mouse IgG2a anti human CD28 Ab 9.3 (Jung et al., 1987) was chemically biotinylated using Sulfo-N-hydroxysuccinimidobiotin as recommended by the manufacturer (Perbio, Bonn, Germany). Beads used were 5.6 μm diameter streptavidin coated polystyrene particles (Bangs Laboratories, Illinois, USA).
# pMHC used for positive and negative control stimulations were A*0201/MLA-001 (peptide […] (SEQ ID NO. 152) from modified Melan-A/MART-1) and A*0201/DDX5-001 ([…] from DDX5 (SEQ ID NO. 153)), respectively.
# 800.000 beads/200 μl were coated in 96-well plates in the presence of 4×12.5 ng different biotin-pMHC, washed and 600 ng biotin anti-CD28 were added subsequently in a volume of 200 μl. Stimulations were initiated in 96-well plates by co-incubating […] CD8+ T cells with 2×10^5 washed coated beads in 200 μl TCM supplemented with 5 ng/ml IL-12 (PromoCell) for 3 days at 37° C. Half of the medium was then exchanged by fresh TCM supplemented with 80 U/ml IL-2 and incubating was continued for 4 days at 37° C. This stimulation cycle was performed for a total of three times. For the pMHC multimer readout using 8 different pMHC molecules per condition, a two-dimensional combinatorial coding approach was used as previously described (Andersen et al., 2012) with minor modifications encompassing coupling to 5 different fluorochromes. Finally, multimeric analyses were performed by staining the cells with Live/dead near IR dye (Invitrogen, Karlsruhe, Germany), CD8-FITC antibody clone SK1 (BD, Heidelberg, Germany) and fluorescent pMHC multimers. For analysis, a BD LSRII SORP cytometer equipped with appropriate lasers and filters was used. Peptide specific cells were calculated as percentage of total CD8+ cells. Evaluation of multimeric analysis was done using the FlowJo software (Tree Star, Oregon, USA). In vitro priming of specific multimer+ CD8+ lymphocytes was detected by comparing to negative control stimulations.
row,Substance,Wells positive [%]
1,15 (ILIKHLVKV; listed as Homo sapiens) [compound 15],+ (<20% = +)
2,22 (FLSPPLPSV; listed as Homo sapiens) [compound 22],++ (20%-49% = ++)
3,2 (ILWREVVTL; listed as Homo sapiens) [compound 2],+ (<20% = +)
4,20 (AVANTTFTV; listed as Homo sapiens) [compound 20],+ (<20% = +)
5,98 (KIPPVSPSI; listed as Homo sapiens) [compound 98],++++ (> = 70% = ++++)
6,7 (FLLSLIDRL; listed as Homo sapiens) [compound 7],+ (<20% = +)
7,29 (ILLDLEQAL; listed as Homo sapiens) [compound 29],+ (<20% = +)
8,16 (FMPEELPQL; listed as Homo sapiens) [compound 16],+ (<20% = +)
9,18 (YVLDLAAKV; listed as Homo sapiens) [compound 18],++ (20%-49% = ++)
10,34 (ELNNQNFYL; listed as Homo sapiens) [compound 34],++ (20%-49% = ++)
11,1 (ALIVSLPYL; listed as Homo sapiens) [compound 1],+ (<20% = +)
12,6 (VLFELSKTV; listed as Homo sapiens) [compound 6],+ (<20% = +)
13,36 (SLFGKKYIL; listed as Homo sapiens) [compound 36],++ (20%-49% = ++)
14,94 (ILHHKVYDL; listed as Homo sapiens) [compound 94],++ (20%-49% = ++)
15,3 (RLLGEVQAL; listed as Homo sapiens) [compound 3],+ (<20% = +)

# Same assay, conditions: percentage of positive donors, Table 10A
row,Substance,donors
1,127 (VLAPLFVYL; listed as Homo sapiens) [compound 127],++++ (> = 70% = ++++)
2,143 (ALFVRLLALA; listed as Homo sapiens) [compound 143],+++ (50%-69% = +++)
3,123 (YVDPVITSI; listed as Homo sapiens) [compound 123],++++ (> = 70% = ++++)

# Same assay, conditions: percentage of positive wells, Table 10A
row,Substance,wells
1,127 (VLAPLFVYL; listed as Homo sapiens) [compound 127],++ (20%-49% = ++)
2,143 (ALFVRLLALA; listed as Homo sapiens) [compound 143],+ (<20% = +)
3,123 (YVDPVITSI; listed as Homo sapiens) [compound 123],+ (<20% = +)

# Biological target: HLA-A*02:01 (Homo sapiens, UniProt P04439, D140Y/D185E/D98H/E176V/E277Q/G131W/G231S/I119V/I121R/I166T/I218V/L300P/L318F/N151K/N90K/P208A/P217A/Q86G/Q94H/R138H/R169H/T345S)
# Assay: MHC binding assay (UV-ligand exchange, beta2m ELISA, peptide exchange yield)
# Conditions: binding to HLA-A*02:01 ranged by peptide exchange yield, β2m ELISA
# Description: Candidate peptides for T cell based therapies according to the present invention were further tested for their MHC binding capacity (affinity). The individual peptide-MHC complexes were produced by UV-ligand exchange, where a UV-sensitive peptide is cleaved upon UV-irradiation, and exchanged with the peptide of interest as analyzed. Only peptide candidates that can effectively bind and stabilize the peptide-receptive MHC molecules prevent dissociation of the MHC complexes. To determine the yield of the exchange reaction, an ELISA was performed based on the detection of the light chain (β2m) of stabilized MHC complexes. The assay was performed as generally described in Rodenko et al. (Rodenko et al., 2006).
# 96 well MAXISorp plates (NUNC) were coated over night with 2 ug/ml streptavidin in PBS at room temperature, washed 4× and blocked for 1 h at 37° C. in 2% BSA containing blocking buffer. Refolded HLA-A*02:01/MLA-001 monomers served as standards, covering the range of 15-500 ng/ml. Peptide-MHC monomers of the UV-exchange reaction were diluted 100 fold in blocking buffer. Samples were incubated for 1 h at 37° C., washed four times, incubated with 2 ug/ml HRP conjugated anti-β2m for 1h at 37° C., washed again and detected with TMB solution that is stopped with […]. Absorption was measured at 450 nm. Candidate peptides that show a high exchange yield (preferably higher than 50%, most preferred higher than 75%) are generally preferred for a generation and production of antibodies or fragments thereof, and/or T cell receptors or fragments thereof, as they show sufficient avidity to the MHC molecules and prevent dissociation of the MHC complexes.
row,Substance,Peptide exchange (MHC class I binding score)
1,15 (ILIKHLVKV; listed as Homo sapiens) [compound 15],++ (≥20% = ++)
2,22 (FLSPPLPSV; listed as Homo sapiens) [compound 22],+++ (≥50 = +++)
3,2 (ILWREVVTL; listed as Homo sapiens) [compound 2],+++ (≥50 = +++)
4,20 (AVANTTFTV; listed as Homo sapiens) [compound 20],++ (≥20% = ++)
5,98 (KIPPVSPSI; listed as Homo sapiens) [compound 98],++ (≥20% = ++)
6,7 (FLLSLIDRL; listed as Homo sapiens) [compound 7],+++ (≥50 = +++)
7,29 (ILLDLEQAL; listed as Homo sapiens) [compound 29],+++ (≥50 = +++)
8,16 (FMPEELPQL; listed as Homo sapiens) [compound 16],++ (≥20% = ++)
9,18 (YVLDLAAKV; listed as Homo sapiens) [compound 18],+++ (≥50 = +++)
10,34 (ELNNQNFYL; listed as Homo sapiens) [compound 34],+++ (≥50 = +++)
11,1 (ALIVSLPYL; listed as Homo sapiens) [compound 1],+++ (≥50 = +++)
12,6 (VLFELSKTV; listed as Homo sapiens) [compound 6],+++ (≥50 = +++)
13,36 (SLFGKKYIL; listed as Homo sapiens) [compound 36],++ (≥20% = ++)
14,78 (ALLDTVVQA; listed as Homo sapiens) [compound 78],++ (≥20% = ++)
15,37 (VLAPVILML; listed as Homo sapiens) [compound 37],++ (≥20% = ++)
16,94 (ILHHKVYDL; listed as Homo sapiens) [compound 94],++ (≥20% = ++)
17,3 (RLLGEVQAL; listed as Homo sapiens) [compound 3],++ (≥20% = ++)
18,88 (TLAELHISL; listed as Homo sapiens) [compound 88],++ (≥20% = ++)
19,17 (ILAQQVHAL; listed as Homo sapiens) [compound 17],+++ (≥50 = +++)
20,113 (SLFDWNVKL; listed as Homo sapiens) [compound 113],+++ (≥50 = +++)
21,39 (YLLNLNHLGL; listed as Homo sapiens) [compound 39],+++ (≥50 = +++)

row,Substance,Peptide exchange (MHC class I binding score)
1,25 (LLVPAHLVAA; listed as Homo sapiens) [compound 25],++ (≥20% = ++)
2,81 (SLLPALPKL; listed as Homo sapiens) [compound 81],++ (≥20% = ++)
3,63 (GLIEDHFDVTV; listed as Homo sapiens) [compound 63],++ (≥20% = ++)
4,106 (VLMDLKALL; listed as Homo sapiens) [compound 106],+++ (≥50 = +++)
5,72 (YSLEKVFGI; listed as Homo sapiens) [compound 72],++ (≥20% = ++)
6,104 (ALFEGVVRQI; listed as Homo sapiens) [compound 104],+++ (≥50 = +++)
7,14 (ALLTETIFL; listed as Homo sapiens) [compound 14],++ (≥20% = ++)
8,58 (FLVDFEQSHL; listed as Homo sapiens) [compound 58],++++ (≥75% = ++++)
9,12 (ALDPSGNQLI; listed as Homo sapiens) [compound 12],++ (≥20% = ++)
10,86 (GLLQGKLALL; listed as Homo sapiens) [compound 86],++ (≥20% = ++)
11,82 (SLLQATDFMSL; listed as Homo sapiens) [compound 82],+++ (≥50 = +++)
12,43 (YLKDELDEL; listed as Homo sapiens) [compound 43],+++ (≥50 = +++)
13,83 (IQWSIVPEV; listed as Homo sapiens) [compound 83],+++ (≥50 = +++)
14,109 (YLWSRVEKL; listed as Homo sapiens) [compound 109],++++ (≥75% = ++++)
15,66 (TLLKTIIKV; listed as Homo sapiens) [compound 66],++ (≥20% = ++)
16,73 (GLDGIPFTV; listed as Homo sapiens) [compound 73],+++ (≥50 = +++)
17,114 (ALAVNISAA; listed as Homo sapiens) [compound 114],+++ (≥50 = +++)
18,99 (GLAPHLEQI; listed as Homo sapiens) [compound 99],++ (≥20% = ++)
19,11 (FIQTEAPKEV; listed as Homo sapiens) [compound 11],++ (≥20% = ++)
20,30 (QLFYTKIFL; listed as Homo sapiens) [compound 30],++ (≥20% = ++)
